Key:
[1] = target: T1, recombinant human TL1A (human, UniProt O95150 71-251); experiment: SPR, recombinant human TL1A
T1 construct: Homotrimeric cytokine; biotinylated with Sulfo-NHS-biotin where captured for SPR, coated unlabelled in ELISA, soluble in bioassays; also called TNFSF15
T1 chain: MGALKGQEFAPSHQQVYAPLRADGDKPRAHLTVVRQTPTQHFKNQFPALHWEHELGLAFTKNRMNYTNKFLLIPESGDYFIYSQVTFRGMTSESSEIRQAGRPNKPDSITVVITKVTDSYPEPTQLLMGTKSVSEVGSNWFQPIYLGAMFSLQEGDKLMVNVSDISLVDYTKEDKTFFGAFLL

[2] = target: T2, bovine serum albumin (bovine, UniProt P02769 25-607); experiment: direct binding ELISA on plate-coated BSA (1 ug/mL), anti-human IgG-Fc HRP, OD450
T2 construct: also called BSA
T2 sequence (P02769 25-607 limits assumed): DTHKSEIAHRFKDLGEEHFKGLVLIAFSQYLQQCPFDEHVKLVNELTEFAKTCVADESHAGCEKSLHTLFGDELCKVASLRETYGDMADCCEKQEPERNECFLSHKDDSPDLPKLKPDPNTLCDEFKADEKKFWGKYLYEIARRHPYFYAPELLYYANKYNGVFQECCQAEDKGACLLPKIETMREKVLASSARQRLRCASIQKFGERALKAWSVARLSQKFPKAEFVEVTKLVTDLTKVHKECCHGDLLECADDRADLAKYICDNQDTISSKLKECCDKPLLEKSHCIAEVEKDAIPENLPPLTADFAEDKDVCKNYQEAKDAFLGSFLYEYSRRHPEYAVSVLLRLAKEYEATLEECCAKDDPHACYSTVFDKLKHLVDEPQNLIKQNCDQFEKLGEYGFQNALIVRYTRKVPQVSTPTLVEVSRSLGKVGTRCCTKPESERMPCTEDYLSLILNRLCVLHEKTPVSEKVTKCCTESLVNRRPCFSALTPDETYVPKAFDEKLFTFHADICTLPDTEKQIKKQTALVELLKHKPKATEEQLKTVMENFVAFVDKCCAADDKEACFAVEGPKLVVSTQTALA
Description: (§1) For the direct binding ELISA method to HSA or BSA, 96-well high binding plates (Corning, product number 3590) were coated with 1 μg/mL recombinant HSA or BSA in 100 μL/well in PBS overnight at 4° C. Plates were then blocked in PBS+0.02% casein solution and washed with PBS+0.05% Tween-20 following standard ELISA protocol. […] Plates were washed with PBS+0.05% Tween-20 following standard ELISA protocol, and goat anti-human IgG-Fc HRP conjugated secondary antibody (Pierce, #31413) diluted to 1:10,000 in assay buffer was added to plates and incubated for 1 hour at room temperature. Next, the plates were washed with PBS+0.05% Tween-20 following standard ELISA protocol, and then TMB substrate (BioFX Laboratories, catalog number TMBW-0100-01) was added to plates.
(§2) Reactions were stopped after approximately 5 minutes by adding 0.18 M ortho-phosphoric acid to each well and absorbance was read at 450 nm. […] For this method, samples diluted to 0.3 mg/mL were dispensed into the sample tray of a MicroCal VP-Capillary DSC with Autosampler (Malvern Instruments, Inc.), equilibrated for 5 minutes at 10° C. and then scanned up to 110° C. at a rate of 100° C. per/hour. A filtering period of 16 seconds was selected. Raw data was baseline corrected and the protein concentration was normalized. Origin Software 7.0 (Origin Lab Corporation, Northampton, MA) was used to fit the data to an MN2-State Model with an appropriate number of transitions.

[3] = target: T1, recombinant human TL1A; experiment: cell-based or functional assay
[4] = target: T3, recombinant rat TL1A (rat, UniProt Q8K3Y7 76-252); experiment: SPR 37 C, biotinylated TL1A captured, antibody injected; approximate KD
T3 construct: biotinylated with Sulfo-NHS-biotin and captured for SPR
T3 sequence: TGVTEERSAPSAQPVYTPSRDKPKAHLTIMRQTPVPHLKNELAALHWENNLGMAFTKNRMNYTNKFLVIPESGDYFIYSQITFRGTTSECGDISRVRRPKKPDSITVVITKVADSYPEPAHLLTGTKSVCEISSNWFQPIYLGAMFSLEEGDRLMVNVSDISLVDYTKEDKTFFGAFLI
Description: (§3) For these analyses, kinetic assays were conducted at 37° C. using a collection rate of 10 Hz on a Biacore™ T200 instrument (GE Healthcare). […] The association phase was 90 seconds, and the dissociation phases were 1600 seconds over human, cynomolgus monkey and rabbit TL1A and 180 seconds for mouse and rat TL1A.

[5] = target: T4, human serum albumin (human, UniProt P02768 25-609); experiment: direct binding ELISA on plate-coated HSA (1 ug/mL), anti-human IgG-Fc HRP, OD450
T4 construct: also called HSA
Description: as §1, §2

[6] = target: T3, recombinant rat TL1A; experiment: SPR 37 C, biotinylated TL1A captured, antibody injected
Description: as §3

[7] = target: T5, recombinant cynomolgus monkey TL1A (cynomolgus monkey, UniProt O95150 72-251 (human entry)); experiment: as above
T5 construct: biotinylated with Sulfo-NHS-biotin and captured for SPR
T5 chain: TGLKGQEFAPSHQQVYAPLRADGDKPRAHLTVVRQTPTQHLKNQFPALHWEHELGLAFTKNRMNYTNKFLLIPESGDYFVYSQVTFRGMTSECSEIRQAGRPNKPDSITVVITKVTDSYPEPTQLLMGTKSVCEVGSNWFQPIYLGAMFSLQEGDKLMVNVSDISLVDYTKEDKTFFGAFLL
Description: as §3

[8] = target: T1, recombinant human TL1A; experiment: as above
Description: as §3

[9] = target: T6, recombinant mouse TL1A (mouse, UniProt Q5UBV8 75-252); experiment: as above
T6 construct: biotinylated with Sulfo-NHS-biotin and captured for SPR
T6 chain: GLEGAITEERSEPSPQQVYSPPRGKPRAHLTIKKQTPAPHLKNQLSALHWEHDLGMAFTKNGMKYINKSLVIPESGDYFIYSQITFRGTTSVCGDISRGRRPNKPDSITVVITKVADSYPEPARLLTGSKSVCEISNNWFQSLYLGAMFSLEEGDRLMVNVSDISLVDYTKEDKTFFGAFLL
Description: as §3

[10] = target: T7, human IL-12 (human, UniProt P29460 23-328; P29459 23-219); experiment: SPR 37 C, antibody captured by anti-human Fc, cytokine injected
T7 construct: Heterodimer p40/p35; also called IL-12 Human
T7 sequence 1: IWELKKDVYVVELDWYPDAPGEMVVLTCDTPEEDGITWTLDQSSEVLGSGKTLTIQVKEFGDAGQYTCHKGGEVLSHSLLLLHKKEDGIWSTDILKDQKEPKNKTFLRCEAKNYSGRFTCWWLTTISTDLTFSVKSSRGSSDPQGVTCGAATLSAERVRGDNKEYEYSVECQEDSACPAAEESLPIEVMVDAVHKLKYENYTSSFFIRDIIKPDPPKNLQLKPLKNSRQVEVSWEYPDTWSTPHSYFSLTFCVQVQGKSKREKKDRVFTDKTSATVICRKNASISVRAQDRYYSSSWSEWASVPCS
T7 sequence 2: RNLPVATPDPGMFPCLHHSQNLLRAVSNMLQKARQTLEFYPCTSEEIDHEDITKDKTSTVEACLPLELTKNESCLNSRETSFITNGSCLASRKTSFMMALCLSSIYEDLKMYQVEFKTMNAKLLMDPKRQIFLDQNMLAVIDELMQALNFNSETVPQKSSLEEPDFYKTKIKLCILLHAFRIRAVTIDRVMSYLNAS
Description: (§4) For these analyses, kinetic assays were conducted at 37° C. using a collection rate of 10 Hz on a BIAcore™ T200 instrument (GE Healthcare). An anti-human IgG antibody (anti-human Fc, catalog number 10-005-098, Jackson ImmunoResearch) was amine coupled to all four flow cells of a carboxymethylated dextran coated sensor chip (GE Healthcare) using the manufacturer's recommended protocol.

[11] = target: T8, cynomolgus monkey IL-23 (cynomolgus monkey, limits assumed); experiment: as above
T8 construct: Heterodimer p40/p19; Whole entries as named; also called IL-23 Cyno
T8 chain 1: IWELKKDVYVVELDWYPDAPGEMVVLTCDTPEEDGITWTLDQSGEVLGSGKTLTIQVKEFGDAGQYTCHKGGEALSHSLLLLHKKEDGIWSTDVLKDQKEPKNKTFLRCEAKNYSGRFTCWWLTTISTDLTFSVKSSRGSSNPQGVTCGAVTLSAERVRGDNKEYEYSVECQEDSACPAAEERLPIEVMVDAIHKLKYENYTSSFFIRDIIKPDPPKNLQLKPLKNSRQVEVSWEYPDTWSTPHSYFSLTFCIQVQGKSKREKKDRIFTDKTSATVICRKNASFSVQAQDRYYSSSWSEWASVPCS
T8 chain 2: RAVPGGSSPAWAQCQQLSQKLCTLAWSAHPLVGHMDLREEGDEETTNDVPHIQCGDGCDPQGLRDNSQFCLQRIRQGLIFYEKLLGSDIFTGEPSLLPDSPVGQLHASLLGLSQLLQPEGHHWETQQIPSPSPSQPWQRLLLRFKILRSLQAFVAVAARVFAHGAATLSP
Description: as §4

[12] = target: T9, human IL-23 (human, UniProt P29460 23-328; Q9NPF7 20-189); experiment: as above
T9 construct: Heterodimer p40/p19; Whole entries as named; also called IL-23 Human; recombinant human IL-23
T9 sequence 1: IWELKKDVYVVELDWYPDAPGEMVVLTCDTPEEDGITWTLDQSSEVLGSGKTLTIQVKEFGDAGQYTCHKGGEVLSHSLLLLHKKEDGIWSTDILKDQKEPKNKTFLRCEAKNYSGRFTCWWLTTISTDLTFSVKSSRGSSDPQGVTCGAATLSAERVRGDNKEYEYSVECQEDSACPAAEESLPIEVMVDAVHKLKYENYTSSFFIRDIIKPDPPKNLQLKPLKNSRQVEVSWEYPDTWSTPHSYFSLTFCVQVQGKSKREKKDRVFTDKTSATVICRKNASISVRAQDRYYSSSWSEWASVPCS
T9 sequence 2: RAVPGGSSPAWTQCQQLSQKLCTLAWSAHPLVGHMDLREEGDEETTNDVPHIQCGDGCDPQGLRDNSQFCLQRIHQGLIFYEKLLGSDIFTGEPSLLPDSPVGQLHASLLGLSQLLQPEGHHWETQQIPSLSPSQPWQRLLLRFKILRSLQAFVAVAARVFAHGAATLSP
Description: as §4

[13] = target: T10, cynomolgus monkey IL-12 (cynomolgus monkey); experiment: as above
T10 construct: Heterodimer p40/p35; Whole entries as named; also called IL-12 Cyno
T10 chain 1: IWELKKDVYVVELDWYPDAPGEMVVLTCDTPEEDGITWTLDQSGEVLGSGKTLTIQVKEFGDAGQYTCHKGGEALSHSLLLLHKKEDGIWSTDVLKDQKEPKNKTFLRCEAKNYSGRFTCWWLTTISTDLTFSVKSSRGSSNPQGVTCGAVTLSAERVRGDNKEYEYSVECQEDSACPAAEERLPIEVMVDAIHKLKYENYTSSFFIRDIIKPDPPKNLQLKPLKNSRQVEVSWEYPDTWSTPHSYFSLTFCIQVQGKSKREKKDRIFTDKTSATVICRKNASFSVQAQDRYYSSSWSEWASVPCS
T10 chain 2: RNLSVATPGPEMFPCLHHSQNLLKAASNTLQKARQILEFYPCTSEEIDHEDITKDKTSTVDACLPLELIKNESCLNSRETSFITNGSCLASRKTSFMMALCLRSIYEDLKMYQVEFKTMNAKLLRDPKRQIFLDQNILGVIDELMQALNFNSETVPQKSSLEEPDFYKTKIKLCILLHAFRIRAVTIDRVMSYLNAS
Description: as §4

[14] = target: T11, recombinant human TL1A (human, UniProt O95150 71-251); experiment: SPR, antibody injected over captured biotinylated human TL1A
T11 construct: homotrimer; biotinylated for SPR capture; the ELISA paragraphs say only 'recombinant TL1A'; also called TNFSF15
T11 chain: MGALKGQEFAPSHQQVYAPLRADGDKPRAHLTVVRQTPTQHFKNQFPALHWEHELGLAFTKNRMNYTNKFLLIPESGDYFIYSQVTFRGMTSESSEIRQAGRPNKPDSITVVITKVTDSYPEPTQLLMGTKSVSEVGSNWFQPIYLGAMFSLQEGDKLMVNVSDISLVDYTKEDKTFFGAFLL
Description: An SPR assay was also used to determine whether the [xTL1A] bivalent antibody variants could bind recombinant human TL1A. […] A high concentration (1 μM) of [xTL1A] variant antibodies were injected in assay buffer (HBS-EP+, pH 7.4, Cytiva, product number BR100669).

B1: TL1A-0372 (bispecific antibody, human IgG1, kappa)
heavy 1: QVQLVQSGAEVKKPGASVKVSCKASGYDYTYYGISWVRQAPGQGLEWMGWISTYNTGTHYAPSLQGRVTMTTDTSTSTAYMELRSLRSDDTAVYYCARESYYGSGAFRGGMDVWGQGTTVTVSSASTKGPSVFPLAPSSKSTSGGTAALGCLVKDYFPEPVTVSWNSGALTSGVHTFPAVLQSSGLYSLSSVVTVPSSSLGTQTYICNVNHKPSNTKVDKKVEPKSCDKTHTCPPCPAPEAAGAPSVFLFPPKPKDTLMISRTPEVTCVVVDVSHEDPEVKFNWYVDGVEVHNAKTKPREEQYNSTYRVVSVLTVLHQDWLNGKEYKCKVSNKALPAPIEKTISKAKGQPREPQVCTLPPSREEMTKNQVSLWCLVKGFYPSDIAVEWESNGQPENNYKTTPPVLDSDGSFFLYSKLTVDKSRWQQGNVFSCSVLHEALHSHYTQKSLSLSPGK
heavy 2: not shown
light: not shown
notes: monovalent bispecific (null-arm) antibody, IgG1 KiH, LS
- Kd [1]: 0.286 nM
- koff [1]: 4.98e-05 s⁻¹
- kon [1]: 174000 M⁻¹ s⁻¹
- binding result [2]: no binding (tested: 1e-6 M)
- NFκB Bioassay IC50 [3]: 1.47 nM
- Kd [4]: ~1510 nM
- binding result [5]: no binding (tested: 1e-6 M)
- koff [6]: 0.0483 s⁻¹
- kon [6]: 32200 M⁻¹ s⁻¹
- Kd [7]: 1.27 nM
- koff [7]: 0.000121 s⁻¹
- kon [7]: 96400 M⁻¹ s⁻¹
- Kd [8]: 0.54 nM
- koff [8]: 6.21e-05 s⁻¹
- kon [8]: 114000 M⁻¹ s⁻¹
- Kd [9]: 295 nM
- koff [9]: 0.00708 s⁻¹
- kon [9]: 24000 M⁻¹ s⁻¹

B2: p40-0003 (antibody, human IgG1, kappa, V domains shown)
VH: EVQLVQSGAEVKKPGESLKISCKGSGYSFTTYWLGWVRQMPGKGLDWIGIMSPVDSDIRYSPSFQGQVTMSVDKSITTAYLQWNSLKASDTAMYYCARRRPGQGYFDFWGQGTLVTVSS
VL: DIQMTQSPSSLSASVGDRVTITCRASQGISSWLAWYQQKPEKAPKSLIYAASSLQSGVPSRFSGSGSGTDFTLTISSLQPEDFATYYCQQYNIYPYTFGQGTKLEIKR
notes: human IgG1 effector-function-minimized/kappa; also called anti-IL12p40 p40-0003 antibody; C230 (ustekinumab) variable regions
- Kd [10]: 0.156 nM
- Kd [11]: 0.317 nM
- Kd [12]: 0.16 nM
- Kd [13]: 0.368 nM

B3: [xTL1A]-0349 bivalent antibody (antibody, human IgG1, kappa, V domains shown)
VH: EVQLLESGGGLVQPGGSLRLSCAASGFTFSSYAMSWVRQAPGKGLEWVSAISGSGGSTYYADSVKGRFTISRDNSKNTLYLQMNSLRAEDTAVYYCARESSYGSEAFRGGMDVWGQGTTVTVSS
VL: DIQMTQSPSSLSASVGDRVTITCRASQSVSSYLAWYQQKPGKAPKLLIYDASNRATGVPSRFSGSGSGTDFTLTISSLQPEDFATYYCQQRSNWPWTFGQGTKVEIKR
notes: disabled (null) bivalent IgG1/kappa
- binding result [14]: no binding (tested: 1 µM)
